Experimental data from patent US20220348651A1, “ENTPD2 ANTIBODIES, COMBINATION THERAPIES, AND METHODS OF USING THE ANTIBODIES AND COMBINATION THERAPIES” (Novartis AG, priority 2019, published 2022).

B1: mAb6: humanized anti-human ENTPD2 antibody from mAb16; VH SEQ ID NO: 70, VL SEQ ID NO: 74 (antibody, V domains shown)
VH: QVQLQESGPGLVKPSQTLSLTCTVSGYSITSGYYWNWIRQHPGKGLEWMGYISYDADNNYNPSLKNRITISRDTSKNQFSLKLSSVTAADTAVYYCAGGYYRYGLGSYSGSYYYVMDYWGQGTTVTVSS
VL: DTQMTQSPSSLSVSVGDRATITCKASQSVDYEGHSYMNWYQQKPGKAPKLLIYAASNLESGVPSRFSGSGSGTDFTLTISSVQPEDFATYYCQQSNEDPPTFGGGTKLEIK
B2: mAb17: hybridoma-derived lead inhibitory anti-human ENTPD2 mAb; VH/VL DNA SEQ ID NO: 234/238 (antibody, V domains shown)
VH: EVQLQQFGAELVKPGASVKISCKASGYTFTDYNMDWVKQSHGKSLEWIGDINPKYDISTYNQQFKGKATLTVDKSSSTAYMELRSLTSEDTAVYYCARRGFFLYYGINYYYFDVWGAGTTVTVSS
VL: QIVLTQSPAIMSASLGEEITLTCSASSSVSYIHWYQQKSGTSPTLLIYSTSNLASGVPSRFSGSGSGTFYSLTISSVEAEDAADYYCHQWSSYPWTFGGGTKLEIK

Experiments:
Human ENTPD1 = biological target: T1, Human ENTPD1 (Homo sapiens, UniProt P49961); assay: Cross reactivity: FACS binding to human ENTPD1 expressing NIH/3T3 cells; details: NIH/3T3-ENTPD1 cells, 50 nM antibody
T1 construct: expressed in transfected cells; host or cells: NIH/3T3 (retroviral transduction, FACS-sorted)
T1 sequence (P49961 1-510): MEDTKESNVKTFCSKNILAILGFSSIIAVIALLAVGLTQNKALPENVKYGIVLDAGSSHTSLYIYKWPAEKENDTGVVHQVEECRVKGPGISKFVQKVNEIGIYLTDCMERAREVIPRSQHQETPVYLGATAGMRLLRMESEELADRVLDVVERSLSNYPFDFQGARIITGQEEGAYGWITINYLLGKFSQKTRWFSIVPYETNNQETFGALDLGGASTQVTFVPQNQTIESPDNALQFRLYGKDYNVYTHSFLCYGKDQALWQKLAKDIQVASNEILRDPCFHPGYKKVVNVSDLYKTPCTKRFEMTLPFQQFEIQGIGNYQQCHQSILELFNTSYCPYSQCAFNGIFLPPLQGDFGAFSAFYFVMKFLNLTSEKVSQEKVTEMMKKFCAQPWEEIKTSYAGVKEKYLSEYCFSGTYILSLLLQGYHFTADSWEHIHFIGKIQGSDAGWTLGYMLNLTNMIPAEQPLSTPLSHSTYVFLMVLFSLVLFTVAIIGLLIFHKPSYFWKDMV
Method: (§1) FACS screening: Specific binding of candidate antibodies to endogenously expressed ENTPD2 was assessed by flow cytometry. Cells were rinsed thoroughly with 1×PBS and treated with Accutase (Millipore #SCR005) to lift from growth plates and resuspended at approximately 1×10^5 cells/90 μL in 1× FACS buffer (2% FBS+0.1% NaN3 in PBS). In a 96-well U-bottom plate, 10 μL of 10× antibody solution in FACS buffer was pre-seeded and 90 μL of cell suspension was added. Cell were incubated for 30 minutes at 4° C., washed 1× with cold PBS and resuspended in 100 μL of 1:500 secondary antibody 1× FACS buffer (Allophycocyanin conjugated F(ab′)2 goat anti-human IgG, Fcγ specific; Jackson Immunoresearch, Cat#109-136-098). After additional incubation for 15 min at 4° C., cells were washed twice with PBS and resuspended in 100 μL of 1×FACS buffer with 4 μg/mL propidium iodide (Life Technologies, Cat#P3566). Geometric mean fluorescence intensity was calculated on live single cells using FlowJo software.
(§2) Cross reactivity Human ENTPD1 (NP_001767) expressing NIH/3T3 cells were generated using a retroviral transduction approach. 72 hrs post transduction, engineered cells were stained with the anti-Human CD39/ENTPD1 APC-conjugated Antibody (R&D systems, Minneapolis, Minn.) and live cells that expressed human ENTPD1 were separated from the rest of the population via fluorescence activated cell sorting. […]

human ENTPD2 = biological target: T2, human ENTPD2 (Homo sapiens, UniProt Q9Y5L3); assay: Biacore (SPR) affinity to human ENTPD2 ECD; type: binding; details: 25° C.
T2 construct: residues 29-462 of human or cyno ENTPD2 were cloned into expression vector; GP67 signal peptide (N); made in house; host or cells: High Five (Trichoplusia ni) insect cells, baculovirus
T2 sequence (Q9Y5L3 29-462): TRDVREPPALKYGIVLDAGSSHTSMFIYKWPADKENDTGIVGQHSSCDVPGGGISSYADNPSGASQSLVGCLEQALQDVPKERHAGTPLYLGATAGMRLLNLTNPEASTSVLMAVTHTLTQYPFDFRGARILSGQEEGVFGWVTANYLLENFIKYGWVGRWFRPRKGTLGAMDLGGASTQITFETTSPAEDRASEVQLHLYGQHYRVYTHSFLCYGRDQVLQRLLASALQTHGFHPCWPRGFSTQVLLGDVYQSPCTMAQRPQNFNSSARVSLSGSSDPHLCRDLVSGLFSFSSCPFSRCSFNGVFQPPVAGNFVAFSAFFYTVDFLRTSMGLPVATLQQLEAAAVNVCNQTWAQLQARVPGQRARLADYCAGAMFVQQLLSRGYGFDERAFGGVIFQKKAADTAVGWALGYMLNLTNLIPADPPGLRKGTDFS
Method: (§3) Biacore Screening: Affinity was measured by determining the kinetic rate constants using surface plasmon resonance (SPR) on a Biacore T200 or T100 with the T200 sensitivity upgrade instrument (Biacore, GE Healthcare). Antibodies were captured on CM5 sensor chips (Biacore, GE Healthcare) prepared with a mouse anti-human IgG Fc antibody (ThermoFisher catalogue #05-4200) amine coupled to the surface. […] ENTPD2 analytes were allowed to associate for 180 s and dissociate for up to 1800 s depending on the off-rate of the antibody at a flow rate of 30 μL/min. The running buffer was PBS pH 7.2 (prepared from a Corning 10X stock, cat#46-013-CM)+0.05% Tween 20. Regeneration was accomplished with 30 s injections of 3 or 4 M MgCl2 to remove all the captured antibody and remaining complex from the surface, after which fresh antibody was captured. The raw data were analyzed using Biacore T200 Evaluation Software version 1.0 and fit to a 1:1 binding model, with all parameters set to fit globally except for RI, which was set to fit locally.

NIH/3T3 cells = assay: Cross reactivity: FACS binding to NIH/3T3 control cells; details: 50 nM antibody
Method: as §1, §2

[1] = system: human ENTPD2 engineered B16LM3 clone B5; assay: Human ENTPD2 engineered B16LM3 clone B5 model, dose response with anti-PD-1 Ab; type: in vivo
Source text: This model was derived from the B16LM3 melanoma model, where endogenous mouse ENTPD2 expression was knocked out via a transient electroporation of CAS9 protein with CRISPR guide RNA sequences against mouse ENTPD2, and human ENTPD2 was overexpressed using a retroviral transduction approach.
Once tumors reached approximately 35-50 mm^3, mice were randomized according to tumor volume into treatment groups (n=8 per group). […] All doses were adjusted to individual mouse body weights.

H520 cells = assay: Cross reactivity: FACS binding to H520 cells (ENTPD3 and ENTPD8 expression); set-up: species or system human; details: 50 nM antibody
Method: as §1
H520 cells were identified as a cancer cell line with ENTPD3 (Ct 25) and ENTPD8 (Ct 26) expression by Taqman and were used for selectivity screening.

mouse ENTPD2 = biological target: T3, mouse ENTPD2 (Mus musculus, UniProt O55026); assay: Antibody specificity: binding to mouse ENTPD2; details: Mouse ENTPD2
T3 construct: residues 29-462 of mouse or rat ENTPD2 (the extracellular domain); mouse IgK signal peptide (N); His6; made in house; host or cells: FreeStyle 293-F cells, transient transfection
T3 sequence (O55026 29-462): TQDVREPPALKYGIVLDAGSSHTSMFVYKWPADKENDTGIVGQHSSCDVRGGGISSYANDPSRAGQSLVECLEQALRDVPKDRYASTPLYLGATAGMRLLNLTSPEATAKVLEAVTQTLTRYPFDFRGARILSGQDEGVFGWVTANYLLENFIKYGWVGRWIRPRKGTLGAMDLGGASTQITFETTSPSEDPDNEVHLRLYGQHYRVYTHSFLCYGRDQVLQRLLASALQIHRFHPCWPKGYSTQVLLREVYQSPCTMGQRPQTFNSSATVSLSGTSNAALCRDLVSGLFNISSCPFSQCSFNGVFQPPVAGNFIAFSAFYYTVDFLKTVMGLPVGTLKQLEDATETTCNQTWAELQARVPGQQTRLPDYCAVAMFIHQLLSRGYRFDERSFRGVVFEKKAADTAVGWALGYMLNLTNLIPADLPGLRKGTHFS
Source text: Antibody specificity for mAbl-mAblO was confirmed. […] Antibodies mAb8, mAb9, and mAb10 show weak affinity to mouse ENTPD2. None of the selected antibodies bind to rat ENTPD2.

[2] = system: cynomologus (cyno) ENTPD2; assay: Biacore (SPR) affinity to cyno ENTPD2 ECD; type: binding, cynomolgus monkey; details: 25° C.
Method: as §3

[3] = biological target: T4, recombinant human ENTPD2 (residues 29-462) (Homo sapiens, UniProt Q9Y5L3); assay: Biochemical human ENTPD2 functional assay (Transcreener ADP2 TR-FRET); details: FIG. 15
T4 construct: residues 29-462 of human or cyno ENTPD2 were cloned into expression vector; GP67 signal peptide (N); made in house; host or cells: High Five (Trichoplusia ni) insect cells, baculovirus
T4 sequence (Q9Y5L3 29-462): T2 sequence (Q9Y5L3 29-462)
Source text: Biochemical and cell-based functional assays were developed in-house to understand functional impact of anti-ENTPD2 Abs against purified extracellular domain of ENTPD2 (residues 29-462), as well as against the fully intact protein in the context of the native cell-based conformation. ENTPD2 hydrolyzes ATP to ADP, which can subsequently be detected using the HTRF Transcreener ADP2 TR-FRET Red Assay (BellBrook Labs, Madison, Wis.) where ENTPD2-produced ADP would compete with the ADP Tracer for binding to the anti-ADP-Tb antibody. The resulting signal is inversely proportional to the concentration of ADP in the sample.
To evaluate activity of anti-ENTPD2 Abs in the ENTPD2 biochemical assay, anti-ENTPD2 Abs and recombinant ENTPD2 (residues 29-462) were diluted in reaction buffer (50 mM HEPES, pH 7.1, 10 mM MgCl2, 0.01% BSA) to the desired concentration. 4 μL per well of the ENTPD2 solution and 2 μL per well of the Anti-ENTPD2 Ab solution were transferred into a ProxiPlate (PerkinElmer, Waltham, Mass.) and incubated for 30 min at room temperature. Reaction was then initiated via addition of 2 μl of ATP (final assay concentration of 1 μM), and the sample was incubated for 25 min at room temperature. […]
HTRF signal (Emission at 620 nm and 665 nm) was assessed in both assays using the Envision plate reader in HTRF mode (Perkin Elmer, Waltham, Mass.). HTRF ratio was determined using the following formula: HTRF ratio=R=Emission at 665 nm/Emission at 620 nm×10,000. Subsequently % Residual Activity and % Inhibition were determined as follows:
Where R0% is the HTRF ratio of the negative control (0% enzyme activity), and R100% is the HTRF ratio of the positive control (100% enzyme activity). Data were analyzed in Microsoft Excel and graphed using GraphPad's Prism 7.0 software and IC50 values were obtained using non-linear regression, log (agonist) vs. response-variable slope (four parameters) analysis.

ENTPD2 = biological target: T5, ENTPD2 (Homo sapiens, UniProt Q9Y5L3); assay: Hybridoma mAb screen: cell-based assay for inhibition of ATP hydrolysis by ENTPD2; details: hybridoma-derived mAbs
T5 sequence (Q9Y5L3 1-495): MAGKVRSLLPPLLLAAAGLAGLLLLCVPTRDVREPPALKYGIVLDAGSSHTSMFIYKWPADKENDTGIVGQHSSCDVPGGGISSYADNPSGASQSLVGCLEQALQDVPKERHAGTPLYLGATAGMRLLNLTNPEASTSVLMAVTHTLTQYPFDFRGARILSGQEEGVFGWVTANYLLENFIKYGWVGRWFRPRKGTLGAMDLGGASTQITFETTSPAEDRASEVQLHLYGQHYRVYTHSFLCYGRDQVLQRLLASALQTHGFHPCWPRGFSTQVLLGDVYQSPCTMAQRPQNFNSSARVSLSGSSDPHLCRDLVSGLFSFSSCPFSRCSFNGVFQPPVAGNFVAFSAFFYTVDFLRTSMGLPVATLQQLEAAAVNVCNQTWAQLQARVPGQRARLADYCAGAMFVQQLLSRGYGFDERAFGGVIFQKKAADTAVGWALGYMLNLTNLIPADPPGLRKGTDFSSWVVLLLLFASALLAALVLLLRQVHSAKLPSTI
Source text: Hybridoma-derived mAbs were screened in a cell-based assay for inhibition of ATP hydrolysis by ENTPD2.

[4] = Day 7, mAb 10 mg/kg dosed D1, no anti-PD-1 Ab

Sequence of cynomologus (cyno) ENTPD2 (as listed by the source): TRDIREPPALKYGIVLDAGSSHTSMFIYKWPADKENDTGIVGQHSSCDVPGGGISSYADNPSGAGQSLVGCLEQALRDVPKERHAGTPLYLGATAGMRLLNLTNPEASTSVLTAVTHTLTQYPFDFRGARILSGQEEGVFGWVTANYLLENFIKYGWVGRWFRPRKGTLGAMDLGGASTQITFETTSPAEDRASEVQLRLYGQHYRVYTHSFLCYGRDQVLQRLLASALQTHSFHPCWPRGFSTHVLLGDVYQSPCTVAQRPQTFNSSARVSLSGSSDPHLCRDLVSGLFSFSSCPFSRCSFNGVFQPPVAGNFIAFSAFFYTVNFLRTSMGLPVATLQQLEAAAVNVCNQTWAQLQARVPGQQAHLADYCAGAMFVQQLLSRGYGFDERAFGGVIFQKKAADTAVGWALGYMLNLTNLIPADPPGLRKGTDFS

| Molecule | Apparent FACS binding at 50 nM (Human ENTPD1) | ka (human ENTPD2) [M⁻¹ s⁻¹] | kd (human ENTPD2) [s⁻¹] | Apparent FACS binding at 50 nM (NIH/3T3 cells) | ΔT/ΔC ([1]; 0.1 mg/kg i.v. day 1, combination with anti-PD-1 Ab fixed dose 10 mg/kg, Day 7) [%] | ΔT/ΔC ([1]; 1 mg/kg i.v. day 1, combination with anti-PD-1 Ab fixed dose 10 mg/kg, Day 7) [%] | ΔT/ΔC ([1]; 10 mg/kg i.v. day 1, combination with anti-PD-1 Ab fixed dose 10 mg/kg, Day 7) [%] | Host Response Survival (alive/total) [1, 4] | Host Response Δ body weight [1, 4] [%] | Tumor Response ΔT/ΔC [1, 4] [%] | anti-tumor efficacy ([1]; as single agents, i.v. day 1) | Apparent FACS binding at 50 nM (H520 cells) | BIACore KD (mouse ENTPD2) | ka [2] [M⁻¹ s⁻¹] | kd [2] [s⁻¹] | inhibition of the catalytic activity of recombinant human ENTPD2 [3] | inhibition of ATP hydrolysis by ENTPD2 (ENTPD2) |
| --- | --- | --- | --- | --- | --- | --- | --- | --- | --- | --- | --- | --- | --- | --- | --- | --- | --- |
| B1 | No binding | 350000 | 0.00026 | No binding | 41.0 | 27.3 | 29.2 | 8/8 | −0.1 | 60.0 | No significant anti-tumor efficacy | No binding | No binding | 290000 | 0.01 |  |  |
| B2 |  |  |  |  |  |  |  |  |  |  |  |  |  |  |  | potently inhibit | lead inhibitory mAbs |
